Measured values published in patent publication US6495376 (dated 2002).
Read-outs that look alike come from different tables or passages of the source. Where no end group is shown, it is not given here. [ ]: non-standard residue; d: D form. fluorescein = N-terminal fluorescein label; pT = C[C@@H](OP(=O)(O)O)[C@H](N)C(=O)O; pS = N[C@@H](COP(=O)(O)O)C(=O)O

How the values were obtained:
GST [1] = target: T1, GST (UniProt P08515 1-218 = GST); assay: fluorescence anisotropy
T1 construct: Control protein; also called control GST

GST-WW-domain of Pin1 = target: T2, GST-WW-domain of Pin1 (human, UniProt Q13526 1-54); assay: fluorescence anisotropy
T2 construct: range 1-54; also called GST-Pin1 WW-domain; Pin1 WW-domain; not shown: glutathione S-transferase (GST), N-terminal fusion partner

GST [2] = target: T1, GST; assay: fluorescence anisotropy; remark: listed apart in the source
Pin1^Y23A = target: T3, Pin1^Y23A (human, UniProt Q13526 1-163); assay: ELISA
T3 construct: mature; also called Pin1^Y23A mutant

B1: Pro-Rich peptide IPGTPPPNYD (peptide)
peptide: fluorescein-IPGTPPPNYD
B1: no binding (GST [1]); no binding (GST-WW-domain of Pin1).

B2: Pintide analogue WFYpSPFLE (peptide)
peptide: fluorescein-WFY[pS]PFLE
notes: also called phosphopeptide
B2: no binding (GST [2]).

B3: WFYSPFLE, nonphosphorylated control peptide (peptide)
peptide: fluorescein-WFYSPFLE
notes: also called nonphosphorylated peptide
B3: no binding (GST [2]).

B4: tau peptide KVAVVRTPPKSPS (pT-231), SEQ ID NO: 30 (peptide)
peptide: KVAVVR[pT]PPKSPS
notes: also called pT231 tau peptide (row of Pin1^Y23A)
B4: no binding (Pin1^Y23A).

B5: Cdc25 Peptide EQPLpTPVTDL (peptide)
peptide: fluorescein-EQPL[pT]PVTDL
notes: also called Cdc25C peptide
B5: no binding (GST [1]).

B6: Cdc25 Peptide EQPLTPVTDL (nonphosphorylated) (peptide)
peptide: fluorescein-EQPLTPVTDL
B6: no binding (GST [1]).
